Literature values, collected in paper PMC3121883.
pKd: −log10 of the molar value. Read-outs that look alike come from different tables or passages of the source.

Experiments:
[1] = target: Connexin43 C-terminal peptide (UniProt P17302); experiment: fluorescence
[2] = target: Connexin43 C-terminal peptide (UniProt P17302); experiment: fluorescence; remark: listed apart in the source

Chain of UniProt P17302 (P17302 whole entry, looked up, tested part not stated): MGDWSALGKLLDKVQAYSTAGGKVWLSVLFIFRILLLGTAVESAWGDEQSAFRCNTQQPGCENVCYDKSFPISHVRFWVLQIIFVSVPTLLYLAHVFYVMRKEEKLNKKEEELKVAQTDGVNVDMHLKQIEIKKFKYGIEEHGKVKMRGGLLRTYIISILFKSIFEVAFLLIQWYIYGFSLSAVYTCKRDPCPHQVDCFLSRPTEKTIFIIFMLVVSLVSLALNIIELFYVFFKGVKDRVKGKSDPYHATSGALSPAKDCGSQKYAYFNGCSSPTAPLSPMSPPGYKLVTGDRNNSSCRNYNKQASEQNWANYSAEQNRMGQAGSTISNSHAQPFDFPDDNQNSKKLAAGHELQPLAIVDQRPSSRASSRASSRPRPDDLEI

Substance: ZO-1 PDZ2 (from UniProt Q07157)
- pKd [1]: < 4.00
- pKd [2]: 5.14
